The source of these data is US8580254B2, “Anti-IGF antibodies” (Boehringer Ingelheim International GmbH, priority 2007, dated 2013).

For series [1], the system named is COLO 205 tumour cells xenografted into nude mice. The series can be described thus: In vivo COLO 205 xenograft study. Details: species or system athymic NMRI nude mice. To be noted: 50 mg/kg 5FU alone, once weekly, FIG. 7. How it is done: Female athymic NMRI nude mice, 6-8 weeks old, are inoculated subcutaneously in the right flank with the COLO 205 human colon tumour-derived cell line (ATCC #CCL-222) (5×10^6 in 100 μl Ringer solution). Tumour cell growth is assessed by measuring tumour volume three times per week using calipers and the formula: π/6× larger diameter×(smaller diameter)^2. Treatment is administered intravenously to groups of ten mice and commenced when tumours have developed to a size of between 130 to 270 mm^3. The treatment schedule consists of two times weekly intravenous infusions of vehicle and antibody 40186 at a dose of 25 mg/kg for two treatment cycles. In combinations of antibody with 5FU, a dose of 50 mg/kg 5FU is administered weekly. The study is terminated when tumours reached an average size of 1500 mm^3. All animal experiments are performed according to the legal requirements in Austria as well as guidelines of the American Association for Laboratory Animal Science (AALAS).

For series [2] the following is noted: cynomolgus monkeys; cited from earlier work.
For series [3] the following is noted: humans; cited from earlier work.
In series [4] the test system is insulin stimulated COLO 205 cell growth. In words: COLO 205 cell growth assay (CellTiter-Glo). Type of series: cell-based, human. To be noted: FIG. 3C. On the technique in general: Cellular ATP, detected with luciferase, serves as a proxy for viable cell number.
Series [5] deals with T1, human IGF-1 (Homo sapiens, UniProt P05019).
T1 construct: Insulin-like growth factor-1 (IGF-1; a 70 amino-acid polypeptide)
In words: ELISA binding titration of IgG1 antibodies. To be noted: FIG. 1A. How it is done: (§1) ELISA screening for IGF-1 positive Fab clones is performed by coating Maxisorb 384-well plates overnight at 4° C. with 5 μg/ml recombinant human IGF-1 (Gropep) in 1× coating buffer (Gibco). Wells are washed with 1×TBS-T and blocked with 1× Blocking Buffer (Gibco) for 1 h at room temperature. Bacterial lysates containing antibody Fab fragments are added for 1.5 hr at room temperature, then washed five times with 1×TBS-T and detected with Alkaline Phosphatase-conjugated Affini Pure Goat Anti-HumanIgG F(ab′)2. Fragment Specific Mab (Dianova) at a dilution of 1:10 000 and visualized with Attophos Substrate (Roche). Fluorescence readings are performed on Tecan fluorescence reader at excitation 430 nm and emission 535 nm.
(§2) Cross-reactivity to recombinant human IGF-1, murine IGF-1, murine IGF-2 (R&D Systems), recombinant human IGF-2, rat IGF-1, rat IGF-2 (Gropep) and recombinant human insulin (Roche) is performed by ELISA using the same procedure as above, but with a 1 μg/ml coating dilution.

Series [6] has as its target T2, murine IGF-1 (Mus musculus, UniProt P05017).
T2 construct: Insulin-like growth factor-1 (IGF-1; a 70 amino-acid polypeptide); purchased R&D Systems
In words: ELISA binding titration of IgG1 antibodies. To be noted: FIG. 1C. The method, then: as §1, §2

For series [7], the target named is T3, murine IGF-2 (Mus musculus, UniProt P09535).
T3 construct: insulin-like growth factor-2 (IGF-2; a 67 amino-acid polypeptide); purchased R&D Systems
The series can be described thus: ELISA binding titration of IgG1 antibodies. To be noted: FIG. 1D. How it is done: as §1, §2
In general terms: In an ELISA, binding on a coated surface is turned into a signal by an enzyme label.

In series [8] the target is T4, human IGF-2 (Homo sapiens, UniProt P01344).
T4 construct: insulin-like growth factor-2 (IGF-2; a 67 amino-acid polypeptide)
The series can be described thus: ELISA binding titration of IgG1 antibodies. To be noted: FIG. 1B. The method, then:
as §1, §2

The target in series [9] is T5, rat IGF-2 (Rattus norvegicus, UniProt P01346).
T5 construct: insulin-like growth factor-2 (IGF-2; a 67 amino-acid polypeptide)
The series can be described thus: ELISA binding titration of IgG1 antibodies. To be noted: FIG. 1F. How it is done:
as §1, §2

For series [10], the target named is T6, rat IGF-1 (Rattus norvegicus, UniProt P08025).
T6 construct: Insulin-like growth factor-1 (IGF-1; a 70 amino-acid polypeptide)
In words: ELISA binding titration of IgG1 antibodies. To be noted: FIG. 1E. How it is done:
as §1, §2

The target in series [11] is T7, biotinylated-IGF-1 binding to coated insulin-like growth factor-1 receptor (Homo sapiens, UniProt P05019).
T7 construct: Insulin-like growth factor-1 (IGF-1; a 70 amino-acid polypeptide); purchased R&D Systems (IGF-1R)
The series can be described thus: ELISA neutralization of biotinylated IGF-1 binding to coated IGF-1R. The method, then: To identify IGF antibodies that neutralize the ability of IGF-1 and IGF-2 to bind to the IGF-1R, an ELISA is established by coating plates with 1.5 μg/ml recombinant human IGF-1R (R&D Systems) which allows the binding of biotinylated IGF-1 and biotinylated IGF-2. Bound IGF-1 or IGF-2 is detected using alkaline phosphatase-conjugated streptavidin (1:10,000 dilution) (Roche). The neutralization potency of antibody Fab fragments is measured by adding 0.1-1 μg/ml of Fab to the wells coated with IGF-1R just prior to the addition of biotinylated IGF-1 or IGF-2 ligands. Antibody Fab fragments that block the binding of biotinylated ligand are identified by a reduction in fluorometric signal.

In series [12] the test system is IGF-1 stimulated COLO 205 cell growth. In words: COLO 205 cell growth assay (CellTiter-Glo). Type of series: cell-based, human. To be noted: 10 ng/ml IGF-1; antibody 5 and 30 μg/ml; 5 days; FIG. 3A. The method, then: (§3) The COLO 205 colon cancer-derived cell line (ATCC # CCL-222) is plated in 96-well plates at a cell density of 1000 cells per well in serum-free RPMI medium. 10 ng/ml of either IGF-1 or IGF-2 is added in the presence or absence of a control antibody or antibodies 40183 and 40186 at concentrations of 5 and 30 μg/ml. Cells are cultured for 5 days then the cell number in each well determined using the CellTiter-Glo luminescent cell viability assay (Promega). Luminescence was recorded using a XFluor GENios Pro 4.

In series [13] the test system is IGF-2 stimulated COLO 205 cell growth. The series can be described thus: COLO 205 cell growth assay (CellTiter-Glo). The format is cell-based, human. To be noted: 10 ng/ml IGF-2; antibody 5 and 30 μg/ml; 5 days; FIG. 3B. How it is done:
as §3

T6 sequence (P08025 49-118 limits assumed): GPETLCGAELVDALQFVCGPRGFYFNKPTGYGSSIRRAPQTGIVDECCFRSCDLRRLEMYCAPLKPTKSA
T5 sequence (P01346 25-91 limits assumed): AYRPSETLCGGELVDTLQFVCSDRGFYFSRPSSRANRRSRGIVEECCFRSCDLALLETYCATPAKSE

Consider `O=c1[nH]cc(F)c(=O)[nH]1` [5FU, 5-fluorouracil, reference compound], for which the “decrease in median tumour growth” value in series [1] was determined as 30%.
On to bevacizumab, for which the terminal half-life in [2] is 206 ± 9.12 h. In [3], the terminal half life entry was “approximately 20 days”.

B1: antibody 40183: fully human IgG1/Igλ anti-IGF antibody; variable heavy SEQ ID NO:18, variable light SEQ ID NO:20; constant regions as 40186 (antibody, listed as Homo sapiens, V domains shown)
VH: QVELVESGGGLVQPGGSLRLSCAASGFTWSSFAMSWVRQAPGKGLEWVSYISYLGSYTGYADSVKGRFTISRDNSKNTLYLQMNSLRAEDTAVYYCARGTKFDYWGQGTLVTVSS
VL: DIVLTQPPSVSGAPGQRVTISCTGSSSNIGTYDVHWYQQLPGTAPKLLIYSNSKRPSGVPDRFSGSKSGTSASLAITGLQSEDEADYYCSITRVFGGGTKLTVLG
modifications: IgG1/lambda constant regions
notes: fully human IgG1/Igλ anti-IGF antibody; constant regions as 40186
For B1, the “effect on insulin induced COLO 205 cell growth” value in [4] is “no effect”. Moreover, in series [5], the “binding to human IGF-1 (ELISA)” value is reported as “concentration dependent binding”. Moreover, the “binding to murine IGF-1 (ELISA)” value in series [6] was “concentration dependent binding”. Also, the “binding to murine IGF-2 (ELISA)” value in series [7] was “concentration dependent binding”. In addition, in [8], the “binding to human IGF-2 (ELISA)” value is given as “concentration dependent binding”. Besides, in series [9], the “binding to rat IGF-2 (ELISA)” value is recorded as “concentration dependent binding”. Moreover, the “binding to rat IGF-1 (ELISA)” value in series [10] was “concentration dependent binding”. Also, the “IC50, inhibition of IGF-1 ligand binding to IGF-1R” value in [11] (FIG. 2) is listed as “approximately 5 ng/ml”. In [11] (FIG. 2, read-out: IC50, inhibition of IGF-1 ligand binding to IGF-1R), the IC50 – broadly, the concentration at which inhibition is half-maximal – is roughly 0.03 nM. Further, in series [12], the “effect on IGF-1 induced COLO 205 cell growth” value was “dose dependent inhibition”. The “effect on IGF-2 induced COLO 205 cell growth” value in [13] is “dose dependent inhibition”.
